From article PMC5165203, “The Cellular DNA Helicase ChlR1 Regulates Chromatin and Nuclear Matrix Attachment of the Human Papillomavirus 16 E2 Protein and High-Copy-Number Viral Genome Establishment” (Journal of Virology, 2016) come the findings set out here.

T1: His-ChlR1 63-214 (human, UniProt Q96FC9 63-214)
T1 construct: DNA helicase ChlR1, human, amino acids 63 to 214, cloned from pCMV-FLAG-ChlR1 into pHIS-TEV; Vector pHIS-TEV (NcoI/EcoRI); held on nickel resin by the hexahistidine tag in the pull-down; also called ChlR1 63-214 peptide
T1 sequence (looked up): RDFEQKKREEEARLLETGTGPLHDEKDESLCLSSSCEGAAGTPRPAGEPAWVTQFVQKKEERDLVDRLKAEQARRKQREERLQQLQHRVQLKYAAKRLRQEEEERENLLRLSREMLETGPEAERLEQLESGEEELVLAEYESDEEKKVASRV

B1: HPV16 E2 D124A mutant (natural protein)
chain: METLCQRLNVCQDKILTHYENDSTDLRDHIDYWKHMRLECAIYYKAREMGFKHINHQVVPTLAVSKNKALQAIELQLTLETIYNSQYSNEKWTLQDVSLEVYLTAPTGCIKKHGYTVEVQFDGAICNTMHYTNWTHIYICEEASVTVVEGQVDYYGLYYVHEGIRTYFVQFKDDAEKYSKNKVWEVHAGGQVILCPTSVFSSNEVSSPEIIRQHLANHPAATHTKAVALGTEETQTTIQRPRSEPDTGNPCHTTKLLHRDSVDSAPILTAFNSSHKGRINCNSNTTPIVHLKGDANTLKCLRYRFKKHCTLYTAVSSTWHWTGHNVKHKSAIVTLTYDSEWQRDQFLSQVKIPKTITVSTGFMSI
notes: E2 protein of human papillomavirus 16, from pCMV-16E2 by site-directed mutagenesis; source: C33a cells, transfected (mutated pCMV-16E2), in lysate
B2: HPV16 E2 D173A mutant (natural protein)
chain: METLCQRLNVCQDKILTHYENDSTDLRDHIDYWKHMRLECAIYYKAREMGFKHINHQVVPTLAVSKNKALQAIELQLTLETIYNSQYSNEKWTLQDVSLEVYLTAPTGCIKKHGYTVEVQFDGDICNTMHYTNWTHIYICEEASVTVVEGQVDYYGLYYVHEGIRTYFVQFKADAEKYSKNKVWEVHAGGQVILCPTSVFSSNEVSSPEIIRQHLANHPAATHTKAVALGTEETQTTIQRPRSEPDTGNPCHTTKLLHRDSVDSAPILTAFNSSHKGRINCNSNTTPIVHLKGDANTLKCLRYRFKKHCTLYTAVSSTWHWTGHNVKHKSAIVTLTYDSEWQRDQFLSQVKIPKTITVSTGFMSI
notes: as for B1
B3: HPV16 E2 K177A mutant (natural protein)
chain: METLCQRLNVCQDKILTHYENDSTDLRDHIDYWKHMRLECAIYYKAREMGFKHINHQVVPTLAVSKNKALQAIELQLTLETIYNSQYSNEKWTLQDVSLEVYLTAPTGCIKKHGYTVEVQFDGDICNTMHYTNWTHIYICEEASVTVVEGQVDYYGLYYVHEGIRTYFVQFKDDAEAYSKNKVWEVHAGGQVILCPTSVFSSNEVSSPEIIRQHLANHPAATHTKAVALGTEETQTTIQRPRSEPDTGNPCHTTKLLHRDSVDSAPILTAFNSSHKGRINCNSNTTPIVHLKGDANTLKCLRYRFKKHCTLYTAVSSTWHWTGHNVKHKSAIVTLTYDSEWQRDQFLSQVKIPKTITVSTGFMSI
notes: as for B1
B4: HPV16 E2 H130R mutant (natural protein)
chain: METLCQRLNVCQDKILTHYENDSTDLRDHIDYWKHMRLECAIYYKAREMGFKHINHQVVPTLAVSKNKALQAIELQLTLETIYNSQYSNEKWTLQDVSLEVYLTAPTGCIKKHGYTVEVQFDGDICNTMRYTNWTHIYICEEASVTVVEGQVDYYGLYYVHEGIRTYFVQFKDDAEKYSKNKVWEVHAGGQVILCPTSVFSSNEVSSPEIIRQHLANHPAATHTKAVALGTEETQTTIQRPRSEPDTGNPCHTTKLLHRDSVDSAPILTAFNSSHKGRINCNSNTTPIVHLKGDANTLKCLRYRFKKHCTLYTAVSSTWHWTGHNVKHKSAIVTLTYDSEWQRDQFLSQVKIPKTITVSTGFMSI
notes: as for B1
B5: HPV16 E2 E118A mutant (natural protein)
chain: METLCQRLNVCQDKILTHYENDSTDLRDHIDYWKHMRLECAIYYKAREMGFKHINHQVVPTLAVSKNKALQAIELQLTLETIYNSQYSNEKWTLQDVSLEVYLTAPTGCIKKHGYTVAVQFDGDICNTMHYTNWTHIYICEEASVTVVEGQVDYYGLYYVHEGIRTYFVQFKDDAEKYSKNKVWEVHAGGQVILCPTSVFSSNEVSSPEIIRQHLANHPAATHTKAVALGTEETQTTIQRPRSEPDTGNPCHTTKLLHRDSVDSAPILTAFNSSHKGRINCNSNTTPIVHLKGDANTLKCLRYRFKKHCTLYTAVSSTWHWTGHNVKHKSAIVTLTYDSEWQRDQFLSQVKIPKTITVSTGFMSI
notes: as for B1
B6: HPV16 E2 Y131A mutant (natural protein)
chain: METLCQRLNVCQDKILTHYENDSTDLRDHIDYWKHMRLECAIYYKAREMGFKHINHQVVPTLAVSKNKALQAIELQLTLETIYNSQYSNEKWTLQDVSLEVYLTAPTGCIKKHGYTVEVQFDGDICNTMHATNWTHIYICEEASVTVVEGQVDYYGLYYVHEGIRTYFVQFKDDAEKYSKNKVWEVHAGGQVILCPTSVFSSNEVSSPEIIRQHLANHPAATHTKAVALGTEETQTTIQRPRSEPDTGNPCHTTKLLHRDSVDSAPILTAFNSSHKGRINCNSNTTPIVHLKGDANTLKCLRYRFKKHCTLYTAVSSTWHWTGHNVKHKSAIVTLTYDSEWQRDQFLSQVKIPKTITVSTGFMSI
notes: as for B1

The assay concerns the target T1, His-ChlR1 63-214. The assay is described as follows: pull-down; His-ChlR1 1-130 or His-ChlR1 63-214 immobilised on nickel resin, incubated with cleared whole-cell lysate of E2-transfected C33a cells for 16 h at 4°C; bound E2 by Western blotting, densitometry against input. The conditions noted are these: one partner purified.
B1: the “% E2 bound (in comparison to the E2^WT binding level)” value (shortened to “% E2 bound”) is 38.8%.

For B2, the “% E2 bound” value came out at 80.5%.

B3: the “% E2 bound” value was 36.3%.

Regarding B4, the “% E2 bound” value turned out to be 45.2%.

Take B5: the “% E2 bound” value was 107%.

For B6, the “% E2 bound” value turned out to be 5.43%.
